Measurements reported in patent publication US20100255020A1, “METHOD FOR INDUCING CYTOTOXIC T-CELLS, CYTOTOXIC T-CELL INDUCERS, AND PHARMACEUTICAL COMPOSITIONS AND VACCINES EMPLOYING THEM” (NEC CORPORATION, priority 2007, published 2010).

Legend:
[1] = biological target: HLA-A*0206 molecule (human); assay: flow cytometry, RA2.6 (RMAS-HLA-A*0206) stabilisation assay with peptide dilutions, stained with mAb BB7.2
[2] = biological target: HLA-A*2402 molecule (human); assay: flow cytometry, acid-stripped C1R-A24 cells reconstituted with beta2m and peptide dilutions, stained with mAb 17A12
[3] = biological target: HLA-A*0201 molecule (human); assay: flow cytometry, acid-stripped JY cells reconstituted with beta2m and peptide dilutions, stained with mAb BB7.2

Binder | -log Kd [1] | -log Kd [2] | -log Kd [3]
ALLPAVPSL (modifications not checked) [W10 peptide] | 7.74 -log Kd | 9.16 -log Kd | 7.84 -log Kd
RVPGVAPTL (modifications not checked) [W302 peptide] | 6.61 -log Kd | 7.67 -log Kd | 6.41 -log Kd
